Here are results for two substances from article PMC9613975.

Assay [1] has as its target PacII S subunit (HsdS), full length, C-terminal 6His tag (assembly analysis) (Pseudomonas alcaligenes NEB585). The experiment in a line: SEC; S subunit alone on size-exclusion chromatography; monomer-dimer equilibrium. (SEC sorts molecules by how far they enter the pores of the column.)
Assay [2] shares this target. The experiment in a line: SEC; only two subunits co-expressed in E. coli (M1 with S, or M2 with S), purified by the same strategy as the wild-type PacII MTase; SEC.

On to “PacII S subunit (HsdS), full length, C-terminal 6His tag (assembly analysis) (natural protein)”, for which the stoichiometry N in assay [1] turned out to be 2.
With “PacII M1 subunit (HsdM1), full length, construct without the 6His-SUMO tag (assembly analysis) (natural protein)”, in assay [2], the stoichiometry N was found to be 1 M1 per S.

The term stoichiometry N denotes the number of molecules, sites or subunits per partner or assembly.
